Results published in patent US20120134979A1, “METHODS AND COMPOSITIONS FOR THE TREATMENT OF SICKLE CELL DISEASE” (priority 2010, published 2012).

How the values were obtained:
SCD Tg mice [1] = experiment: Life span of RBCs in SCD Tg mice (in vivo biotin labelling); parameters: species or system mouse
Experimental: Measurement of life span of RBCs in SCD Tg mice. SCD Tg mice were treated with or without PEG ? ADA (2.5 unit/week) for 8 weeks. At 6 week-treatment, RBCs were labeled in vivo by using N-hydroxysuccinimide (NHS) biotin and the life span of circulating red blood cells was measured as described (Perumbeti, et al. A novel human gamma-globin gene vector for genetic correction of sickle cell anemia in a humanized sickle mouse model: critical determinants for successful correction. Blood. 2009; 114(6):1174-1185).
Specifically, 50 mg/kg of NHS biotin was injected into the retro-orbital plexus of SCD Tg mice (prepared in 100 μl sterile saline just prior to injection; initially dissolved at 50 mg/ml in N,—N,-dimethylacetamide) Blood samples (only 5 μl) were collected after first day of biotin-injection from tail vein by venipuncture to determine the percentage of RBCs labeled with biotin. Subsequently, 5 μl of blood were obtained by tail vein every 3 days for measurement of biotinylated RBCs until the 10th day. The percentage of biotinylated RBCs was calculated by determining the fraction of peripheral blood cells labeled with Ter-119 (to identify RBCs) that were also labeled with a streptavidin-conjugated fluorochrome by flow cytometry.

SCD Tg mice [2] = experiment: Urine measurements (proteinuria, osmolality) in SCD Tg mice after chronic PEG-ADA; assay type: in vivo, mouse
Experimental: Chronic PEG-ADA therapy. SCD transgenic mice, at eight weeks of age, were divided to two groups. One group was injected with 2.5 U PEG-ADA weekly for 8 weeks. This dosing protocol was designated SCD with PEG-ADA treatment regimen (SCD+PEG-ADA). Another group was injected with normal saline for 8 weeks; it was designated as SCD without PEG-ADA treatment regimen (SCD). Wild-type mice (C57Bl/6) used as control were injected with saline or PEG-ADA as with the SCD groups.
Mouse urine collection and measurements. Urine was collected using a metabolic cage (Bioseb, France) for proteinuria and creatinine analysis using a commercially available kit (Exocell, Philadelphia) as described Zhou, et al. Angiotensin receptor agonistic autoantibodies induce pre-eclampsia in pregnant mice. Nat. Med. 2008; 14(8):855-862). For urine osmolality analysis, mice were deprived of water for 24 hours, then urine was collected on Parafilm, transferred to 1.5 ml tube, the urine was diluted 10 times with distilled water and measured with vapor pressure osmometer (Wescor, Logan, Utah).

SCD Tg mice [3] = experiment: Lung inflammation (neutrophils, cytokines) after hypoxia/reoxygenation in SCD Tg mice; assay type: in vivo, mouse; settings: hypoxia-reoxygenation
Excerpt: Hypoxia/reoxygenation of SCD Tg mice. SCD Tg mice were subjected to two-hour hypoxic condition with 8% oxygen. After hypoxia, mice were returned to normoxic conditions for four hours Wallace, et al. NKT cells mediate pulmonary inflammation and dysfunction in murine sickle cell disease through production of IFN-gamma and CXCR3 chemokines. Blood. 2009; 114(3):667-676). At the end of the experiments, mice were sacrificed and blood collected for adenosine measurement, sickling and hemolytic analysis.
Immunohistochemistry to assess neutrophil infiltration in the lung. To quantify neutrophils, a specific neutrophil antibody, was used as described (Zhou, et al., Enhanced airway inflammation and remodeling in adenosine deaminase-deficient mice lacking the A2B adenosine receptor. J. Immunol. 2009; 182(12):8037-8046). Rehydrated slides were quenched with 3% hydrogen peroxide, Ag retrieval performed (Dako), and endogenous avidin and biotin blocked with a Biotin Blocking System (Dako). […] Quantification of distal airway neutrophils-positive cells was performed on 20 fields/mouse lung section at ×20 using software analysis (Image Pro Plus 4.0; Media Cybernetics, Bethesda, Md., USA).
ELISA for INF-γ, IL-6, IL-1β and GM-CSF measurement in the mouse lung homongenates. INF-γ, IL-6, IL-1β and GM-CSF levels in lung homogenates were determined using ELISA kits (QUANGI).

RBCs from SCD patients = experiment: Hypoxia-induced sickling of RBCs from SCD patients; assay type: cell-based, human; settings: RBCs from individuals with SCD, hypoxic conditions
Experimental: Isolation of total erythrocytes and treatment of human and mouse erythrocytes in vitro. Blood collected with heparin as an anti-coagulant was centrifuged at 240×g for 10 min at room temperature, followed by aspiration of plasma and white interface. Packed red blood cells (RBCs) were washed 3 times with culture media (F-10 Ham's with 1% penicillin/streptomycin, 10% fetal bovine serum (FBS), and re-suspended to 4% hematocrit (HCT). One ml of RBCs was added to each well of a 12-well plate. Normal RBCs purified from humans were treated with different concentrations of 5′-(N-ethyl-carboxamido) adenosine (NECA, an adenosine receptor agonist, Sigma-Aldrich, St. Louis, Mo.) ranging from 1-50 μM for different time points (from 1 to 18 hr) under normoxic conditions. Normal RBCs were treated with 10 μM NECA in the presence or absence of adenosine receptor antagonists, including theophylline, PSB36, SCH442416, MRS1754 and MRS3777 (Tocris Bioscience, St. Louis, Mo.) at 10 μM. In addition, normal RBCs were treated directly with the A2BR agonist (BAY 60-6583, Bayer HealthCare AG, Wuppertal, Germany) or the A2AR agonist (CGS21680) (Tocris). Similarly, the mouse RBCs were treated with or without NECA at 10 μM in the presence or absence of theophylline (10 μM). In addition, RBCs purified from 4 adenosine receptor deficient mice were treated with 10 μM NECA. After 18 hours, cells were collected and 2,3-DPG levels were measured as described below. RBCs were purified from SCD patients and treated with or without 10 μM NECA, 5 units/ml polyethylene glycol-adenosine deaminase (PEG-ADA) or 3 mmol/L glycolic acid (Sigma-Aldrich), 10 μM MRS1754 (A2BR antagonist) under ambient oxygen (normoxia) or different levels of hypoxic conditions (for 3 hours with shaking at 37° C. At the end of experiments, 2,3-DPG levels were measured and the percentage of sickled cells determined as described below.
Morphological study of erythrocytes and quantification of reticulocytes by flow cytometry. Blood smears were stained using the WG16-500 ml kit (Sigma-Aldrich) for sickled cells and observed using 100× oil immersion objective of Olympus BX60 microscope. […] The percentages of sickled cells among the counted cells were calculated. Reticulocyte was labeled by Retic-COUNT Reagent (Becton Dickinson) and quantified by flow cytometry (Perumbeti, et al., A novel human gamma-globin gene vector for genetic correction of sickle cell anemia in a humanized sickle mouse model: critical determinants for successful correction. Blood. 2009; 114(6):1174-1185).

B1: PEG-ADA: polyethylene glycol-modified adenosine deaminase, a drug used to lower adenosine concentrations in ADA-deficient humans (protein, UniProt P56658 2-363, looked up)
Adenosine deaminase: AQTPAFNKPKVELHVHLDGAIKPETILYYGRKRGIALPADTPEELQNIIGMDKPLSLPEFLAKFDYYMPAIAGCREAVKRIAYEFVEMKAKDGVVYVEVRYSPHLLANSKVEPIPWNQAEGDLTPDEVVSLVNQGLQEGERDFGVKVRSILCCMRHQPSWSSEVVELCKKYREQTVVAIDLAGDETIEGSSLFPGHVKAYAEAVKSGVHRTVHAGEVGSANVVKEAVDTLKTERLGHGYHTLEDATLYNRLRQENMHFEVCPWSSYLTGAWKPDTEHPVVRFKNDQVNYSLNTDDPLIFKSTLDTDYQMTKNEMGFTEEEFKRLNINAAKSSFLPEDEKKELLDLLYKAYGMPSPASAEQCL
modifications: PEGylated
fold increase of half-life of RBCs (SCD Tg mice [1]; chronic treatment vs untreated): 2 fold
half-life of RBCs (SCD Tg mice [1]; chronic treatment, untreated 2 days): 96 h
proteinuria (SCD Tg mice [2]): decreased
urine osmolality (SCD Tg mice [2]): increased
neutrophil infiltration in the lungs (SCD Tg mice [3]; image quantification): significantly lowered
proinflammatory cytokines in the lungs (INF-γ, IL-6, IL-1β and GM-CSF) (SCD Tg mice [3]; lung homogenates): significantly decreased
percentage of sickled cells (RBCs from SCD patients): significantly reduced
